One assay addresses von Willebrand factor (UniProt P04275 764-2813). The assay is described as follows: ELISA. In general terms: ELISA stands for enzyme-linked immunosorbent assay.
A further assay concerns the target type 1 collagen (UniProt P02452). The assay is described as follows: ELISA.

In PMC4013287 (Arteriosclerosis, thrombosis, and vascular biology, 2013) one finds Kd data, which are given here for 1 molecule.

Chain of type 1 collagen (P02452 23-1218, chain 1 of 2): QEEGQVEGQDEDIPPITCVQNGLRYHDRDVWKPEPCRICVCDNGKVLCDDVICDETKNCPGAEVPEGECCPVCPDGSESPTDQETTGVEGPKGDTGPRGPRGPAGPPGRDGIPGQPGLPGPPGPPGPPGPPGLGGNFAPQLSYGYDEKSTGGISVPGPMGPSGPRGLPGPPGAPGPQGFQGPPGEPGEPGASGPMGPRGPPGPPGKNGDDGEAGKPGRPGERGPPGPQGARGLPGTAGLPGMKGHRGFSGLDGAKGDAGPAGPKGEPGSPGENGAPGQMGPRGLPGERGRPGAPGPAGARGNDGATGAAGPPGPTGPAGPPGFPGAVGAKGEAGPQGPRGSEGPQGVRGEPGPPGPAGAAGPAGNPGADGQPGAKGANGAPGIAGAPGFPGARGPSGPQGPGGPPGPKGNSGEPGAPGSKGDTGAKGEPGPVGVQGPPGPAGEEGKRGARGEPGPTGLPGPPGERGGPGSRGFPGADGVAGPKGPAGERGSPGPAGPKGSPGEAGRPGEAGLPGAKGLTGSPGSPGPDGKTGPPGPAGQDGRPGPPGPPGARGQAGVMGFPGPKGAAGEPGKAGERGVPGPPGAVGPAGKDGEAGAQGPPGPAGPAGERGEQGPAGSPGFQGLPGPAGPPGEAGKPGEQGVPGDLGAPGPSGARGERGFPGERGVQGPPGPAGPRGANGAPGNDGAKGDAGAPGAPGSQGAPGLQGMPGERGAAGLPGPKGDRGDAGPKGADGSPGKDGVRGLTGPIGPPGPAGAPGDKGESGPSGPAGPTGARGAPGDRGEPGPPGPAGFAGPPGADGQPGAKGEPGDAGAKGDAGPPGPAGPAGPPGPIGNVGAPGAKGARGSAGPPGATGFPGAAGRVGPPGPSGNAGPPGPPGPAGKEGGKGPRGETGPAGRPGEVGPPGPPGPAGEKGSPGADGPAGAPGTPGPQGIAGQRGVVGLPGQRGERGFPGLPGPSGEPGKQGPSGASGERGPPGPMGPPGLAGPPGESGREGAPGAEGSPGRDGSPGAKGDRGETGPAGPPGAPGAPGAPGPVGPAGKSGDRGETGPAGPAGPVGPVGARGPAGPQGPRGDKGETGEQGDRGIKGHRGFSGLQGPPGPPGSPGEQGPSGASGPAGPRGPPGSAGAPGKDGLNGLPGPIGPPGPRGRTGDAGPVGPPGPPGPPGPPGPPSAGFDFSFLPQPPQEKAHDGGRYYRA
Chain of type 1 collagen (P08123 80-1119, chain 2 of 2, further chain): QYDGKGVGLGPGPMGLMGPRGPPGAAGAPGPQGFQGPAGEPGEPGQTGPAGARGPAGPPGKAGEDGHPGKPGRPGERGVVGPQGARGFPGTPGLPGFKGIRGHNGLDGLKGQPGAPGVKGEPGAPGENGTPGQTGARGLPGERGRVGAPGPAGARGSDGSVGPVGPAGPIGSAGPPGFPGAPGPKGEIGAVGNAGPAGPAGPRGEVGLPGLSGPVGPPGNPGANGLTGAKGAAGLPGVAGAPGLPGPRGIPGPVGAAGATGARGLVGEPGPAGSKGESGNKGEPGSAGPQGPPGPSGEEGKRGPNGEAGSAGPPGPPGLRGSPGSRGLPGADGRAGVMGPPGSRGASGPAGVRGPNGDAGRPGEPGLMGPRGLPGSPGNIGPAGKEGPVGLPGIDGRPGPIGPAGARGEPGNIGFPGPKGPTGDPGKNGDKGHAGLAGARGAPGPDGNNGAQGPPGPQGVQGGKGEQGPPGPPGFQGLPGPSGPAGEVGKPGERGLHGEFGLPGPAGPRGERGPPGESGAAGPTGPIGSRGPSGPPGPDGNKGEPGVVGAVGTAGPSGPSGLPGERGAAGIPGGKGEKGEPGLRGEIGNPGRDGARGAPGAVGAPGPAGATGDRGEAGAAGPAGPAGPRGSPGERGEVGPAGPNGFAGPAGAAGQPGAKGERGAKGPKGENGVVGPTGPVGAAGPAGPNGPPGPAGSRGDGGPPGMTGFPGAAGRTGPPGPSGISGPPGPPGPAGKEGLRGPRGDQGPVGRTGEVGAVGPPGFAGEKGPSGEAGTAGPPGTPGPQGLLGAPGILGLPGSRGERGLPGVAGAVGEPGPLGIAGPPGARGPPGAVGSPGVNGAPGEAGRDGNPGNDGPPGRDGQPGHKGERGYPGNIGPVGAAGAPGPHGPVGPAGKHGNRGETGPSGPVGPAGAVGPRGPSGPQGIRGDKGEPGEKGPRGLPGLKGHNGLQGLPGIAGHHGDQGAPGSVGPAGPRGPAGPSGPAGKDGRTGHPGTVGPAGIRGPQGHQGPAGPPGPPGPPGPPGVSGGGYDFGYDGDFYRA

B1: Recombinant human full-length ADAMTS13 (enzyme, UniProt Q76LX8 75-1427, looked up)
chain: AAGGILHLELLVAVGPDVFQAHQEDTERYVLTNLNIGAELLRDPSLGAQFRVHLVKMVILTEPEGAPNITANLTSSLLSVCGWSQTINPEDDTDPGHADLVLYITRFDLELPDGNRQVRGVTQLGGACSPTWSCLITEDTGFDLGVTIAHEIGHSFGLEHDGAPGSGCGPSGHVMASDGAAPRAGLAWSPCSRRQLLSLLSAGRARCVWDPPRPQPGSAGHPPDAQPGLYYSANEQCRVAFGPKAVACTFAREHLDMCQALSCHTDPLDQSSCSRLLVPLLDGTECGVEKWCSKGRCRSLVELTPIAAVHGRWSSWGPRSPCSRSCGGGVVTRRRQCNNPRPAFGGRACVGADLQAEMCNTQACEKTQLEFMSQQCARTDGQPLRSSPGGASFYHWGAAVPHSQGDALCRHMCRAIGESFIMKRGDSFLDGTRCMPSGPREDGTLSLCVSGSCRTFGCDGRMDSQQVWDRCQVCGGDNSTCSPRKGSFTAGRAREYVTFLTVTPNLTSVYIANHRPLFTHLAVRIGGRYVVAGKMSISPNTTYPSLLEDGRVEYRVALTEDRLPRLEEIRIWGPLQEDADIQVYRRYGEEYGNLTRPDITFTYFQPKPRQAWVWAAVRGPCSVSCGAGLRWVNYSCLDQARKELVETVQCQGSQQPPAWPEACVLEPCPPYWAVGDFGPCSASCGGGLRERPVRCVEAQGSLLKTLPPARCRAGAQQPAVALETCNPQPCPARWEVSEPSSCTSAGGAGLALENETCVPGADGLEAPVTEGPGSVDEKLPAPEPCVGMSCPPGWGHLDATSAGEKAPSPWGSIRTGAQAAHVWTPAAGSCSVSCGRGLMELRFLCMDSALRVPVQEELCGLASKPGSRREVCQAVPCPARWQYKLAACSVSCGRGVVRRILYCARAHGEDDGEEILLDTQCQGLPRPEPQEACSLEPCPPRWKVMSLGPCSASCGLGTARRSVACVQLDQGQDVEVDEAACAALVRPEASVPCLIADCTYRWHVGTWMECSVSCGDGIQRRRDTCLGPQAQAPVPADFCQHLPKPVTVRGCWAGPCVGQGTPSLVPHEEAAAPGRTTATPAGASLEWSQARGLLFSPAPQPRRLLPGPQENSVQSSACGRQHLEPTGTIDMRGPGQADCAVAIGRPLGEVVTLRVLESSLNCSAGDMLLLWGRLTWRKMCRKLLDMTFSSKTNTLVVRQRCGRPGGGVLLRYGSQLAPETFYRECDMQLFGPWGEIVSPSLSPATSNAGGCRLFINVAPHARIAIHALATNMGAGTEGANASYILIRDTHSLRTTAFHGQQVLYWESESSQAEMEFSEGFLKAQASLRGQYWTLQSWVPEMQDPQSWKGKEGT
The term Kd denotes the constant that tells how readily two partners part at equilibrium. A higher Kd goes with lower affinity. Regarding B1, the dissociation constant Kd turned out to be 8.2 ± 1.6 nM in the assay with von Willebrand factor and 257 nM with type 1 collagen.
